This is an account of results in patent US20090252778A1, “METHODS AND DEVICES FOR REDUCING TISSUE DAMAGE AFTER ISCHEMIC INJURY” (INNOVATIONAL HOLDINGS LLC., priority 2006, published 2009).

This series is described as follows: in vitro cumulative release from dual drug stent. The conditions noted are these: insulin and Pimecrolimus eluting stent. Type of series: physicochemical. As for the experimental part:
FIG. 6a is a graph showing the in vitro cumulative release of insulin over time from a dual drug stent. FIG. 6b is a graph showing the in vitro cumulative release of pimecrolimus over time from a dual drug stent. A stent for eluting insulin and Pimecrolimus was made substantially according to the description in A above. The stent was loaded with a base region, an insulin drug region, and a Pimecrolimus cap region. The base contained PLGA and/or PEVA; the drug contained insulin 250 μg total drug load (TDL) and PLGA; and the cap contained PEVA, PLGA/PLA-PCL and Pimecrolimus 300 μg TDL, and 6 deposits of PLGA/PLA-PCL. FIGS. 6A and 6B show the release profile of the insulin and Pimecrolimus eluting stent, respectively, over time. As shown in FIG. 6A at least about 50% of the insulin is released in the first 48 hours.

With insulin, the “insulin released (in vitro cumulative release)” value (insulin 250 μg TDL in PLGA, in the first 48 hours, FIG. 6A) was “at least 50%”.

For `CC[C@@H]1/C=C(\C)C[C@H](C)C[C@H](OC)[C@H]2O[C@@](O)(C(=O)C(=O)N3CCCC[C@H]3C(=O)O[C@H](/C(C)=C/[C@@H]3CC[C@H](Cl)[C@H](OC)C3)[C@H](C)[C@@H](O)CC1=O)[C@H](C)C[C@@H]2OC` [Pimecrolimus], the “release profile of Pimecrolimus (in vitro cumulative release)” value (Pimecrolimus 300 μg TDL in cap region, FIG. 6B) was “high initial release rate followed by a slower prolonged release”.
